Values quoted from earlier work as cited in publication PMC6753945.

Target: CD28 (Homo sapiens) (UniProt P10747)

## CD80 (from UniProt P33681)
  Kd: 200 nM
